Laboratory results: patent US8703918

Molecular target: prostate specific membrane antigen (PSMA) (human) (UniProt Q04609)
Experiment: FACS on LNCaP (PSMA+) cells; negative control, background signal

prostate specific membrane antigen (PSMA) (human), sequence (Q04609 whole entry): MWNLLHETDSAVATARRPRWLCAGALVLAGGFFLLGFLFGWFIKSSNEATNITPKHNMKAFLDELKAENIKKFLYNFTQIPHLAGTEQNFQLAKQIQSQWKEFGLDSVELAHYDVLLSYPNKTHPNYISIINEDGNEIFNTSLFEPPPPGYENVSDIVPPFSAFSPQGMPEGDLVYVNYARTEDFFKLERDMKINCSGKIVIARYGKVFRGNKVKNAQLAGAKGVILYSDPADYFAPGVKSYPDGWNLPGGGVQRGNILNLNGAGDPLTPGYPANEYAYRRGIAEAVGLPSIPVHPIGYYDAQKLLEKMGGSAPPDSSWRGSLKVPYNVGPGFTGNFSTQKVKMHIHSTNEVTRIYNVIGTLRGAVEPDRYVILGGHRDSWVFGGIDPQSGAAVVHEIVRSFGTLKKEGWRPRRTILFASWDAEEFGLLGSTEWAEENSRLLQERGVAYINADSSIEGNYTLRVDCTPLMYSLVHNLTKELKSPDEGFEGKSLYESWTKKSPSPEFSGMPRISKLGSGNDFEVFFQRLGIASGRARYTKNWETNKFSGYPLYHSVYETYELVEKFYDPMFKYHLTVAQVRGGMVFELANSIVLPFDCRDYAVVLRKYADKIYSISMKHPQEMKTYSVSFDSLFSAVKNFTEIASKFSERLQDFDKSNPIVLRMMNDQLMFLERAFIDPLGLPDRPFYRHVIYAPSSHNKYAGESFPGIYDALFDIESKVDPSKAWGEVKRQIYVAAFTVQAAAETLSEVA

Substance avidin-FITC has an MFI of 161 MFI.
